The record followed here is PMC8808179 (The Journal of Biological Chemistry, 2021).

Changes are numbered by the printed parent chain.

The chains are these.
T1: cynomolgus monkey (nonhuman primate) IL-13 (Macaca fascicularis)
T1 chain: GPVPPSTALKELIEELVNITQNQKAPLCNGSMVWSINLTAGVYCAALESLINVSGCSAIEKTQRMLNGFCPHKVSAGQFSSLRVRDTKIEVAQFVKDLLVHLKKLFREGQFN

B1: HC1 (heavy-chain variant of Ab731 with the parental light chain), membrane-tethered on the cell surface (antibody, V domains shown)
VH: EVQLLESGGGLVQPGGSLRLSCAASGFTFSSYAMSWVRQAPGKGLEWVSAFSGWDVSTYYADSVKGRFTISRDNSKNTLYLQMNSLRAEDTAVYYCVQDGLGPYFYNYGMDVWGQGTTVTVSS
VL: SYELTQPPSVSVSPGQTASITCSGDKLGDKYTCWFQQKPGQSPVLVIYHDSKRPSGIPERFSGSNSGDTATLTISGTQAMDEADYYCQAWDSSTYVFGTGTKVTVL
B2: HC2 (heavy-chain variant of Ab731 with the parental light chain), membrane-tethered on the cell surface (antibody, V domains shown)
VH: B1 VH with M34G, W54S, D55G, V56G
VL: B1 VL
B3: antibody 731 (antibody, V domains shown)
VH: B1 VH with W54S, D55G, V56G
VL: B1 VL
B4: MMAb2 (LC2/HC2) (antibody, V domains shown)
VH: B1 VH with M34G, W54S, D55G, V56G
VL: B1 VL with T32A, C33F
B5: MMAb3 (LC1/HC1) (antibody, V domains shown)
VH: B1 VH
VL: B1 VL with T32S, C33F
B6: MMAb1 (LC1/HC2) (antibody, V domains shown)
VH: B1 VH with M34G, W54S, D55G, V56G
VL: B1 VL with T32S, C33F

Sequence of human interleukin (IL)-13 (P35225 25-146): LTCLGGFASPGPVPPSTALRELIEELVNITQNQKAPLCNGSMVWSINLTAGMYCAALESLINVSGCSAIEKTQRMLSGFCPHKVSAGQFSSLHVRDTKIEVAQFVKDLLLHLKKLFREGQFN

For the first test, the target named is T1, cynomolgus monkey (nonhuman primate) …. In words: flow cytometry on cells.
Consider B1, for which the binding result is listed as “binds”.
As to B2, the binding result is “binds”.

Another test concerns the target human interleukin (IL)-13 (Homo sapiens, UniProt P35225). The test is described as follows: KinExA.
With B3, binding was put at a Kd of 1.9 pM.
Still for that read-out and setting: under B4 stands 0.142 pM; under B5, 0.034 pM.
Still for that read-out and setting: under B6 stands 0.295 pM.

Another test deals with T1, cynomolgus monkey (nonhuman primate) …. In words: KinExA.
B3 came in with a Kd of 3550 pM.
The same measure, in the same setting: in the case of B4 it was 12.4 pM; in that of B5, 5.1 pM; in that of B6, 18.7 pM.
